This series concerns the molecule itself. Briefly: cryo-EM structure; single-particle cryo-EM of purified ATG9B in LMNG-CHS micelles; 20 mM Tris-HCl, 200 mM NaCl, pH 8.5; reconstructions with C3 and without symmetry.

B1: 3×FLAG-6×His-TEV-ATG9B (full-length human ATG9B), purified from Expi293 cells (natural protein, UniProt Q674R7-1 1-924, looked up)
chain: MVSRMGWGGRRRRLGRWGDLGPGSVPLLPMPLPPPPPPSCRGPGGGRISIFSLSPAPHTRSSPSSFSPPTAGPPCSVLQGTGASQSCHSALPIPATPPTQAQPAMTPASASPSWGSHSTPPLAPATPTPSQQCPQDSPGLRVGPLIPEQDYERLEDCDPEGSQDSPIHGEEQQPLLHVPEGLRGSWHHIQNLDSFFTKIYSYHQRNGFACILLEDVFQLGQFIFIVTFTTFLLRCVDYNVLFANQPSNHTRPGPFHSKVTLSDAILPSAQCAERIRSSPLLVLLLVLAAGFWLVQLLRSVCNLFSYWDIQVFYREALHIPPEELSSVPWAEVQSRLLALQRSGGLCVQPRPLTELDIHHRILRYTNYQVALANKGLLPARCPLPWGGSAAFLSRGLALNVDLLLFRGPFSLFRGGWELPHAYKRSDQRGALAARWGRTVLLLAALNLALSPLVLAWQVLHVFYSHVELLRREPGALGARGWSRLARLQLRHFNELPHELRARLARAYRPAAAFLRTAAPPAPLRTLLARQLVFFAGALFAALLVLTVYDEDVLAVEHVLTAMTALGVTATVARSFIPEEQCQGRAPQLLLQTALAHMHYLPEEPGPGGRDRAYRQMAQLLQYRAVSLLEELLSPLLTPLFLLFWFRPRALEIIDFFHHFTVDVAGVGDICSFALMDVKRHGHPQWLSAGQTEASLSQRAEDGKTELSLMRFSLAHPLWRPPGHSSKFLGHLWGRVQQDAAAWGATSARGPSTPGVLSNCTSPLPEAFLANLFVHPLLPPRDLSPTAPCPAAATASLLASISRIAQDPSSVSPGGTGGQKLAQLPELASAEMSLHVIYLHQLHQQQQQQEPWGEAAASILSRPCSSPSQPPSPDEEKPSWSSDGSSPASSPRQQWGTQKARNLFPGGFQVTTDTQKEPDRASCTD
notes: ATG9B, human, canonical isoform 1 (Q674R7-1), full length; residues 191-674 visible in the cryo-EM map; A TEV site lies between the 6×His tag and ATG9B; no cleavage is described; Eluted from the anti-FLAG resin with 3×FLAG peptide; In LMNG-CHS micelles; also called ATG9B homotrimer; pcDNA3.1-3×FLAG-6×His-TEV-ATG9B; source: Expi293, transiently transfected, extracted into detergent micelles, …
Regarding B1, the “stoichiometry N” value came to 3.

As usually defined, the stoichiometry N is a count of units in the complex or per binding partner.

The record behind these values is article PMC10936676, “ATG9B is a tissue-specific homotrimeric lipid scramblase that can compensate for ATG9A” (Autophagy, 2023).
